According to US8642555B2, “Prodrugs” (KTB Tumorforschungsgesellschaft mbH, priority 2009, dated 2014):
Numbered stars: 1 amine (or outer) side, 2 acyl side, 3 side chain; on linkers, the order of the positions; unused ones are H or OH. Square brackets hold non-standard residues; d marks the D form. Peptide text beside a SMILES is read from it. * marks the point of attachment. ξ: configuration not given here. X1 = COc1cccc2c1C(=O)c1c(O)c3c(c(O)c1C2=O)C[C@@](O)(C(=O)CO)CC3O[C@H]1C[C@@H](N*)C(O)[C@H](C)O1; Hexanoyl(6-maleimido) = O=C1C=CC(=O)N1CCCCCC(=O)*; PABC = O=C(OCc1ccc(N[*:1])cc1)[*:2]; ξY = NC(Cc1ccc(O)cc1)C(=O)O; ξR = N=C(N)NCCCC(N)C(=O)O; ξL = CC(C)CC(N)C(=O)O; ξS = NC(CO)C(=O)O

Key:
[1] = cited from earlier work
[2] = in vivo; cited from earlier work

| Compound | water-solubility (Water-solubility) | further results |
| --- | --- | --- |
| COc1cccc2c1C(=O)c1c(O)c3c(c(O)c1C2=O)CC(O)(C(=O)CO)CC3OC1CC(NC(=O)C(CCCNC(=N)N)NC(=O)C(N)CO)C(O)C(C)O1 (stereo not drawn) [Ser-Arg-DOXO] | – | half-life of liberation of free doxorubicin from the dipeptide [1]: > 48 h |
| COc1cccc2c1C(=O)c1c(O)c3c(c(O)c1C2=O)C[C@@](O)(C(=O)CO)CC3O[C@H]1C[C@@H](NC(=O)OCc2ccc(NC(=O)C(CC(C)C)NC(=O)C(CO)NC(=O)C(Cc3ccc(O)cc3)NC(=O)C(Cc3ccc(O)cc3)NC(=O)C(CO)NC(=O)C(CO)NC(=O)C(CCCNC(=N)N)NC(=O)CCCCCN3C(=O)C=CC3=O)cc2)C(O)[C@H](C)O1 (stereo partly drawn) [compound 6, EMC-Arg-Ser-Ser-Tyr-Tyr-Ser-Leu-PABC-DOXO] ({Hexanoyl(6-maleimido)}-[ξR][ξS][ξS][ξY][ξY][ξS][ξL][PABC]-X1) | excellent water-solubility | – |
| CC(=O)O[C@H]1C(=O)[C@@]2(C)C([C@H](OC(=O)c3ccccc3)[C@]3(O)C[C@H](OC(=O)[C@H](OC(=O)OCc4ccc(NC(=O)C(CC(C)C)NC(=O)C(CO)NC(=O)C(Cc5ccc(O)cc5)NC(=O)C(Cc5ccc(O)cc5)NC(=O)C(CO)NC(=O)C(CO)NC(=O)C(CCCNC(=N)N)NC(=O)CCCCCN5C(=O)C=CC5=O)cc4)[C@@H](NC(=O)c4ccccc4)c4ccccc4)C(C)=C1C3(C)C)[C@]1(OC(C)=O)CO[C@@H]1C[C@@H]2O (stereo partly drawn) [compound 10, EMC-Arg-Ser-Ser-Tyr-Tyr-Ser-Leu-PABC-Paclitaxel] | excellent water-solubility | – |
| albumin | – | half-life in the systemic circulation [2]: up to 19 days |
